The target of the test is HTRA1^PD + 7-mer ABP (purified covalent complex of HTRA1^PD and biotin-DPMFKLV-phosphonate) (human) (UniProt Q92743). The test can be described thus: SPR; His6-tagged HTRA proteins (about 200 RU) captured with the His-capture kit on a CM5 chip, Fab15H6.v4 as analyte, single-cycle kinetics, three-fold dilutions from 1 nM or 1 μM; absence of binding verified with 3 μM Fab; Biacore S200, 25 °C, HBS-EP; 1:1 Langmuir model. (Surface plasmon resonance follows binding to a sensor surface in real time, without labels.)
Sequence of HTRA1^PD + 7-mer ABP (purified covalent complex of HTRA1^PD and biotin-DPMFKLV-phosphonate) (human) (Q92743 161-379, one chain of several): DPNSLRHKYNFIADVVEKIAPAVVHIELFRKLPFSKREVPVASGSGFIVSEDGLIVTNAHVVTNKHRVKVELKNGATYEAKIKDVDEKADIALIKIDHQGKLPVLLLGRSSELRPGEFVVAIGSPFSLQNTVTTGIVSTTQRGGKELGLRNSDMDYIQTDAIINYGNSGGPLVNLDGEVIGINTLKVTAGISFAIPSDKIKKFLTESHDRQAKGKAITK

B1: Fab15H6.v4 (Fab, V domains shown)
VH: EVQLVQSGAEVKKPGASVKVSCKASGYKFTDSEMHWVRQAPGQGLEWIGGVDPETEGAAYNQKFKGRATITRDTSTSTAYLELSSLRSEDTAVYYCTRGYDYDYALDYWGQGTLVTVSS
VL: DIQMTQSPSSLSASVGDRVTITCRASSSVEFIHWYQQKPGKAPKPLISATSNLASGVPSRFSGSGSGTDFTLTISSLQPEDFATYYCQQWSSAPWTFGQGTKVEIK
For orientation: Kd means the constant that tells how readily two partners part at equilibrium. For the molecule B1, the dissociation constant Kd was found to be 0.21 nM.

These data come from article PMC9445180.
